Measurements taken from patent US6355785 (Aronex Pharmaceuticals, Inc.).

T1: HIV-1 integrase IN1-212 (C-terminal deletion) (HIV-1, UniProt P04585 P04585:1148-1359)
T1 chain: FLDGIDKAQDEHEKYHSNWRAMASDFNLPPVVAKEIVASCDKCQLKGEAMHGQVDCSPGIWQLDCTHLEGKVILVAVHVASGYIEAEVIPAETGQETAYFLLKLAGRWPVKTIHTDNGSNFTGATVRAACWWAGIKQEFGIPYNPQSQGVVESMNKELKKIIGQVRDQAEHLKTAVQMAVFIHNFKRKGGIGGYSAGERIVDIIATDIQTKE


Each binder was assayed against T2, HIV-1 integrase wild-type (IN1-288) (Human immunodeficiency virus 1, UniProt P12497 P12497:1148-1435) (assay: inhibition; 3'-process column; strand transfer column 0.060 (headings appear swapped)). Conditions: intermolecular G4.
GCGGGGCTCCATGGGGGTCG (structured_DNA, PS pattern g*c*gggc*t*c*c*a*tggggg*t*c*g (as printed in table footnote)) [S935833] gave an IC50 of 45 nM.

The binders below were run against T2, HIV-1 integrase wild-type (IN1-288) (assay: inhibition; both activities 0.120). Conditions: intermolecular G4.
For TGGGAGGTGGGTCTG (structured_DNA, all phosphodiester, DMT at 3' end) [T30747B], the IC50 was 120 nM.

These binders were tested against T3, HIV-1 integrase wild-type (IN1-288) (Human immunodeficiency virus 1, UniProt P12497 P12497:1148-1435) (assay: inhibition; both activities 0.125). Conditions: not given.
TGGGAGGTGGGTCTG (structured_DNA, pPT (PS at first and last linkages)) [T30748] was tested, and the IC50 was 125 nM.

Biological target: T1, HIV-1 integrase IN1-212 (C-terminal …)
Assay: inhibition; disintegration assay, Mn2+, 30 C
Conditions: intramolecular G4
GTGGTGGGTGGGTGGGT (structured_DNA, PS at the terminal 5' and 3' internucleoside linkages) [T30177 (AR177)] was tested, and the IC50 was 600 nM.

These binders were tested against T3, HIV-1 integrase wild-type (IN1-288) (assay: inhibition; both activities 0.120; row misprinted T30745). Conditions: not given.
In the case of GCGGGGCTCCATGGGGGTCG (structured_DNA, pPT (PS at first and last linkages)) [T30754], the IC50 is reported as 120 nM.

The binders below were run against T3, HIV-1 integrase wild-type (IN1-288) (assay: inhibition). Conditions: not given.
GUGGUGGGUGGGUGGGU (ssRNA, pPT (PS at first and last linkages), RNA sugars) [T30661] was tested, and the IC50 was 84 nM.
GTGGTGGGTGGGTGGGT (structured_DNA, pPT; N5,N13 = C-5 propynyl dU [n positions 5,13 = modified dU]) [T30702] showed an IC50 of 30 nM.
Binder GTGGTGGGTGGGTGGGT (structured_DNA, pPT; capital T = C-5 propynyl dU (position 5)) [T30700] has an IC50 of 40 nM.
Work on GTGGTGGGTGGGTGGGT (structured_DNA, pPT; N13 = 5-iodo dU [n positions 13 = modified dU]) [T30578] yielded an IC50 of 50 nM.
For GTGGTGGGTGGGGTGGT (structured_DNA, pPT (PS at first and last linkages)) [T30698], the IC50 was 16 nM.
GTGGTGGGTGGGTGGGT (structured_DNA, pPT; N13 = C-5 propynyl dU [n positions 13 = modified dU]) [T30701] showed an IC50 of 30 nM.
With GTGGGTGGTGGGGTGGT (structured_DNA, pPT (PS at first and last linkages)) [T30699] the IC50 was 50 nM.
In the case of GTGGTTGGTGTGGTTGGT (structured_DNA, pPT (PS at first and last linkages)) [T30674], the IC50 is reported as 610 nM.
With GTGGTGGGGTGGTGGGT (structured_DNA, pPT (PS at first and last linkages)) [T30697] the IC50 was 13 nM.
For GTGGTGGGTGGGTGGGT (structured_DNA, pPT; N5 = 5-iodo dU [n positions 5 = modified dU]) [T30576], the IC50 was 50 nM.
With GTGGTGGGTGGGTTGGT (structured_DNA, pPT (PS at first and last linkages)) [T30678] the IC50 was 120 nM.
With GTGGTTGGTGTGGTTGG (structured_DNA, pPT (PS at first and last linkages)) [T30673] the IC50 was 600 nM.
With GTGGTGGGTGGGTGGGT (structured_DNA, pPT; N5,N9,N13 = 5-bromo dU [n positions 5,9,13 = modified dU]) [T30571] the IC50 was 50 nM.
In the case of GTGGGTGGTGGGTGGGT (structured_DNA, pPT (PS at first and last linkages)) [T30696], the IC50 is reported as 13 nM.
GTGGTGGGCGGGTGGGT (structured_DNA, pPT) [T30744] showed an IC50 of 60 nM.

The binders below were run against T4, HIV-1 reverse transcriptase (Human immunodeficiency virus 1, UniProt P03366;P03366 P03366:600-1159,P03366:600-1039) (assay: inhibition). Conditions: not given.
Work on GTGGTGGGTGGGTGGGTGGTGGGTGGTGGTTGTGGGTGGGTGGTG (ssDNA, PS all linkages, 3'-amine) [I100-21] yielded a Ki of 1 nM.
GTGGTGGGTGGGTGGGTGGTGGGTGGTGGTTGTGGGTGGGTGGTG (ssDNA, phosphodiester, 3'-amine) [I100-07] gave a Ki of 137 nM.
GATCCATGTCAGTGACAC (ssDNA, PS all linkages, 3'-amine) [1232 random GATC] showed a Ki of 560 nM.
For GGGTGGGTGGGTGGGTGG (ssDNA, PS all linkages, 3'-amine) [1174], the Ki was 15 nM.
With GTTGGGGGTTGTTGGTGGGGTGGTGG (ssDNA, PS all linkages, 3'-amine) [I100-12] the Ki was 5 nM.
Binder GTTGGGGGTTGTTGGTGGGGTGGTGG (ssDNA, phosphodiester, 3'-propanolamine) [I100-00] has a Ki of 370 nM.

What follows are binders tested against T3, HIV-1 integrase wild-type (IN1-288) (assay: inhibition; 3'-process column; strand transfer column 0.150). Conditions: not given.
Work on GTGGCGGGCGGGCGGGT (structured_DNA, pPT) [T30746] yielded an IC50 of 150 nM.

The binders below were run against T3, HIV-1 integrase wild-type (IN1-288) (assay: inhibition; 3'-process column; strand transfer column 0.055; row misprinted T30745). Conditions: not given.
In the case of GTGGCGGGTGGGTGGGT (structured_DNA, pPT) [T30743], the IC50 is reported as 60 nM.

What follows are binders tested against T4, HIV-1 reverse transcriptase (assay: inhibition; printed as ID50). Conditions: not given.
GTGGTGGGTGGGTGGGTGGTGGGTGGTGGTTGTGGGTGGGTGGTG (ssDNA, PS all linkages, 3'-amine) [I100-21] gave an IC50 of 4 nM.
GTGGTGGGTGGGTGGGTGGTGGGTGGTGGTTGTGGGTGGGTGGTG (ssDNA, phosphodiester, 3'-amine) [I100-07] gave an IC50 of 2500 nM.
Work on GATCCATGTCAGTGACAC (ssDNA, PS all linkages, 3'-amine) [1232 random GATC] yielded an IC50 of 45 nM.
GGGTGGGTGGGTGGGTGG (ssDNA, PS all linkages, 3'-amine) [1174] showed an IC50 of 15.4 nM.
Work on GTTGGGGGTTGTTGGTGGGGTGGTGG (ssDNA, PS all linkages, 3'-amine) [I100-12] yielded an IC50 of 15 nM.
GTTGGGGGTTGTTGGTGGGGTGGTGG (ssDNA, phosphodiester, 3'-propanolamine) [I100-00] was tested, and the IC50 was 5000 nM.
